In the supplement of paper PMC9170038:

The sequences below were run on K4 kissing-loop RNA reporter (assay: apparent KD of K4 kissing-loop reporter; higher = weaker reporter binding). Settings: Eterna round: R107; input ligand: arginine 13.2 mM.
Method: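 RNA-MaP round R107: designed RNA switches with theophylline, tryptophan, arginine or FMN aptamers are transcribed on-chip within common flanks. They are titrated with a labelled K4 kissing-loop RNA reporter in RNA-MaP buffer (100 mM Tris pH 7.5, 80 mM KCl, 4 mM MgCl2), without ligand or with the indicated ligand. Median apparent KD per design.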
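Note: bound reporter read as fluorescence of individual clusters on recovered sequencing chips by microscopy, with normalized cluster intensities fitted with a binding model.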

Point of comparison: “AAGUGUGUGGCGGCCGCCACUAGAAUCCAGUGAUGUUGGAGUUAUCAAAUAAAUGAUAAUCAACAUAGGACCGGGCCAUAUAGAA [Same State - Tryptophan B (Freestyle 4)]”, “apparent KD of K4 kissing-loop reporter” value 430 nM. Against it:
- UACUAGUGAAACUAGUAGGUGCUAGGUGAAGGAGCGAUCGAAAGAUCAGGUAGGUCGCACCUUCCUGAGUGAUGUUCAGGUAAUA [KL-SSArg-A3] — 15-fold lower, 29.6 nM
- CAUGGUGCUCGCCAGUUGUGCGAACGGUGGGAGGAUAUGUCGCGAGACAGAAGGCCCAGUGAUGUUGGGCAGGCUCGUAGAUCGA [Mazadi] — 3.8-fold lower, 113 nM
- AGUGAUAUAUGAGGAUAUGGGUUAAUUAGUGAGUUAUUUUUAGUGUUGUUUGAUUAGUGAUGUUAUUUAGAAGGCGUGAGUGAUG [awwswmjmullin] — 5.7-fold lower, 75 nM
- AUAUUAACUCAGUGAUGUUGAGUUGACGAAGGAGCGCUAGAGAUAGCAGGUAGGUCGCGUCAAUUUAAUGGAGACUAGCUUUACG [Arg A Ex t4] — within 1.5-fold, 297 nM
- UUGGGCAGUGAUGUUGGCUAGGCCACAGAUACCAGACGCAUGCACGUCCCUUGGCAGCUGCGAAAGUUAGACUUGUAAUGAUAGU [theeternabot_sameState_KL_Theo_A_45] — 2.4-fold lower, 181 nM
- AGGGACUCUUCGGAGUCCCGGUUAAGGGAUACCAGUGAUGUUGGUCACCCUUGGCAGCCCAGAAACCAAGCCACCAAAGGUGGCA [Omei KL Theo A Exc A v2] — 3.4-fold lower, 127 nM
- UAUCUUUGCUGAAGGAGCGAGCAUGUUGGAGUGAUGUUCCGUGCGAGUGAUGUUCGCAUAGCUCAGGUAGGUCGCAGUGGGAGGA [KL-SSArg B29] — 4.5-fold lower, 94.7 nM
- AGAAGAUAUCAAGAUACCAGCUCCCGGCCCAAAACCCAGAUACACGAGUGAUGUUCGUUCAGCCCUUGGCAGCUUGCCUAGUUCU [theeternabot_sameState_KL_Theo_B_6] — 2.9-fold lower, 149 nM
- UGUCAUGGAAACAUGAACGUUGAUGUUCGACGAGGACCGGUACGGCCGCCACUCGAGUAAUAGUCAGUGAUGUUGACUAGUCUAA [KL-SSTryp-A form1] — 4-fold lower, 107 nM
- CAACCGUAACACGAUACCAGCCUAGAAGCCAGUGAUGUUGGCCUUUUUUCGGAAAUGAAAGGCCCUUGGCAGCGUGGAUGAACUG [Dibibiquus] — within 1.5-fold, 304 nM
- GCCGUACGCAUGGAUACCAGCAUCAGAUCUUAGUGAUGUUAAGUCGAGAGUUGGUCAAAAUGCCCUUGGCAGCCAUGCGUACGGC — 4.7-fold lower, 90.8 nM
- UGUCAUUGGUCGGCCGCCACUAGAAGGUCAAAGACCAAAGAGUGAUGUUCUUAGACGAAAGUCACUAGGACCGGGACCGAUGACU [TrypBS 7 #SwitchBubble #K4Middle] — within 1.5-fold, 641 nM
- UGUCAUUGGUCUGAUACCAGCUGAUCGGAAACGAUCUUGCUGGAGUGAUGUUCCAGGAAAAGCCCUUGGCAGCAGACCGAUGACU [TheoBS 10 #SwitchBubble #StaticStem] — within 1.5-fold, 445 nM
- AUGACAGAAUCGGCCGCCACUCAUUGUCCUGUGGACAUUCUAGGAUUAGUGAUGUUUUUCCCAUCGAGGACCGGGAUACAGAUUG [theeternabot_sameState_KL_Trp_B_6] — 1.6-fold lower, 267 nM
- GGUCUGCCGCAGUGAUGUUGCUGGCAUACACGAGGACCGGUACGGCCGCCACUCGAUGCUCCAAGAACCACCAAUCUUCGGUAUC [theeternabot_sameState_KL_Trp_A_48] — 1.8-fold lower, 235 nM
- UGACUGGACUGAAGGAGCGCUGAAGGAGCGUAAGUAGUGAUGUUGCUUACAGGUAGGUCGCAGCAGGUAGGUCGCAGUCUAGUCU — 12-fold lower, 37.1 nM
- AGGAGCGUGCGAUGUAAAUCGCACGCUCCACGAGGACCGGUACGGCCGCCACUCGCUCGUGCAGAGUGAUGUUCUGCCGGCGAAU [#2 Same State - Tryptophan A Attempt #24 (HarryS)] — 2.1-fold lower, 202 nM
- CUUACCCAUCGGAUGGAUCAACUGCACACGAAGGAUAUACACACGGGUAGAAGGUCGGGAUUCCAGUGAUGUUGGAUGGUACGAC [theeternabot_exclusion_KL_FMN_A_29] — 4.5-fold lower, 96.5 nM
- CGACUAUUUCGAUAGUCGAUAGACACGGAAGGAGCGGGAUUCGUCCCAGGUAGGUCGCCGUGAAGUUGAGUGAUGUUCAACGUGU [Arg A SS t13] — 2.8-fold lower, 155 nM
- UGUCAUUGGUCGGCCGCCACUAGACGGACAUAAAGUCUGUCAUAAAGAGUGAUGUUCUUAAAUAAUAGGACCGGGACCGAUGACU [TrypBS 29 #SwitchBubble #StaticStem] — within 1.5-fold, 382 nM
- CUCGACACGGGAAGGAGCGGUUGCGUGUGCCAGUGAUGUUGGAUCAGCAGACUGCCCGGUAGCCAGGUAGGUCGCCUGUGCUGAG [Esbeescexe] — 2.6-fold lower, 166 nM
- AAGUGAUGUUGUAGUGAUGUUGUGAUGUUGCAGGAUAUAUAGUGAUGUAGAAGGGUAUGUUCAGUUUUUUUUUUUGAGUGUUGAU [szxmullin] — 12-fold lower, 35.3 nM
- GGAUCCACCAGUGAUGUUGGAGAAAACUCUAAGGAUAUGACGAAAGUCAGAAGGUGGUAGACUGGGCAAAGUCCGGUCGGAUCCA [FmnA10 U30+G66] — 3.6-fold lower, 120 nM
- GGAUAGGAUAGAGGAUAUGGUAUAGGCAAGAAUAACUUGUCAUGUAAAUCCAUGAGGAGUGAUGUUCCAGAAGGCUGUCCUAUCG [MatMod 9 - Jieux - Exclusion - FMN B] — 2.4-fold lower, 179 nM
- UCGGGAGGCCGAAGGAGCGCCGCCAGUGAUGUUGGGAGUUAGAUACCAGUGAUGUUGGGCCGGCAGGUAGGUCGCGGCCGCGGAU [Exclusion Arginine B Gf 18] — 4.1-fold lower, 106 nM
- AGUGAUGUUGAGUUAUCUUAGUGAAGUGAUCGAGGACCGGUACGGCCGCCACUCGAGUGAUGAGUGAGUGAUGUUUGUUUAGGGA [llkmullin] — 1.8-fold higher, 780 nM
- AGUGAUGUUUCUUUUAAGAGUGAUGUUUUUCGAGGACCGGUACGGCCGCCACUCGAGUGAUGAGUGCGUCGUUGUGGUGAUUAGU [#13 K4 Tryptophan A Exclusion] — 1.5-fold lower, 281 nM
- GGCAGUGAUGUUGCCAGUGGCAGAUGCGAAGGAGCGCAGUGAGAUGCAGGUAGGUCGCGCAUUGAAAUUGCUGUCACUAAAAUGC [#2] — within 1.5-fold, 369 nM
- GAAAGAAAGAAUGAUACCAGACACCCGAGUGAUGUUCGGAGCAGAGUGAUGUUCUUAUAAGUCCCUUGGCAGCAUAAAAGAAAAG [whbob_SS_Theo_B_sa82] — 2.5-fold lower, 171 nM

Same assay, conditions: Eterna round: R107; input ligand: none

Point of comparison: “UACUAGUGAAACUAGUAGGUGCUAGGUGAAGGAGCGAUCGAAAGAUCAGGUAGGUCGCACCUUCCUGAGUGAUGUUCAGGUAAUA [KL-SSArg-A3]”, “apparent KD of K4 kissing-loop reporter” value 44.5 nM. Against it:
- GCCGUAGAUUGAAGGAGCGGACAGAUACGGGAAUCCAGUGAUGUUGGAAGGUAACUACUAGUCCAGGUAGGUCGCAAUCUACGGC — 3.1-fold higher, 136 nM
- AGAUCUGUAACAGAUACCAGAGGACGAUGAUCGAACAGUGAUGUUAUCUGUUAGUCGUCGCUCCCUUGGCAGCUGUUACAGAUCA [Omei KL Theo B SS B v4] — within 1.5-fold, 55.5 nM
- AGUGUUAGGUUAGAUACCAGCCGUCCGUGGAUAACCCUCGGACCGCCAGUGAUGUUGGCAGGCCCUUGGCAGCUAACAGAACAGA [Beriisa] — 5.6-fold higher, 250 nM
- GCAGUGAUGUUGCGGAUGUACAGUGGAGUGCGAGGACCGGUACGGCCGCCACUCGUACAGAACAAGCUAAUACAUCGAUAGGUGA [XI] — 10-fold higher, 461 nM
- GGAGCUACCUGGGAUACCAGUCGGAGUCUCAGAGCUCGGAGUGAUGUUCUGGGAUGUUUCGGCCCUUGGCAGCUCUGGGACUCCU [#2 Exclusion - Theophylline B Attempt #18 (HarryS)] — 19-fold higher, 864 nM
- AACGCUGUGAAUAACACAGCGAAUAAUUCGCGAGGACCGGUACGGCCGCCACUCGCUAACUGCGAGUGAUGUUCGAUAAUAAAAU [Mat - Mod of OpenEnded 3 - D12] — 4-fold higher, 177 nM
- GAAGGUCAAAGACCUUCGUGCACAACUGAUACCAGUCGCGAAAGCGACCCUUGGCAGCAGGGCAGUGAUGUUGCCAGUGCACAAA [Omei KL Theo A SS A v3] — 3.8-fold higher, 167 nM
- UGUGUUGUUUUGAUGUUUGUUGUAAGGUGGCAGGAUAUCGUAGAGGCGAGAAGGGCUUUUUUGCGUUAUGAGUGAUGUUUGUAGG [exeerzmullin] — 14-fold higher, 614 nM
- GCAGCACCGAGUGAUGUUUGGUUCAGCGUGAAGGAUAUAAUAUCUGUUAGAAGGUCAAGUGAGAUUGUCGCGAAUCAGUUUUGAU [theeternabot_exclusion_KL_FMN_A_41] — 6.9-fold higher, 309 nM
- AAUAGAUCAUUAUAGUGAUAAAUGCCUGAUACCAGUGAGAGAUGGCACCCUUGGCAGCAGAGAUGAGUGAUGUUCAGACUGUAAA [theeternabot_sameState_KL_Theo_A_11] — 2.3-fold higher, 104 nM
- CAUGGUGCUCGCCAGUUGUGCGAACGGUGGGAGGAUAUGUCGCGAGACAGAAGGCCCAGUGAUGUUGGGCAGGCUCGUAGAUCGA [Mazadi] — 2.9-fold higher, 129 nM
- AGUGAUAUAUGAGGAUAUGGGUUAAUUAGUGAGUUAUUUUUAGUGUUGUUUGAUUAGUGAUGUUAUUUAGAAGGCGUGAGUGAUG [awwswmjmullin] — 1.5-fold higher, 67.5 nM
- AUAUUAACUCAGUGAUGUUGAGUUGACGAAGGAGCGCUAGAGAUAGCAGGUAGGUCGCGUCAAUUUAAUGGAGACUAGCUUUACG [Arg A Ex t4] — 8.2-fold higher, 365 nM
- UUGGGCAGUGAUGUUGGCUAGGCCACAGAUACCAGACGCAUGCACGUCCCUUGGCAGCUGCGAAAGUUAGACUUGUAAUGAUAGU [theeternabot_sameState_KL_Theo_A_45] — 7.2-fold higher, 321 nM
- AGGGACUCUUCGGAGUCCCGGUUAAGGGAUACCAGUGAUGUUGGUCACCCUUGGCAGCCCAGAAACCAAGCCACCAAAGGUGGCA [Omei KL Theo A Exc A v2] — 3-fold higher, 133 nM
- UAUCUUUGCUGAAGGAGCGAGCAUGUUGGAGUGAUGUUCCGUGCGAGUGAUGUUCGCAUAGCUCAGGUAGGUCGCAGUGGGAGGA [KL-SSArg B29] — 2.4-fold higher, 105 nM
- AGAAGAUAUCAAGAUACCAGCUCCCGGCCCAAAACCCAGAUACACGAGUGAUGUUCGUUCAGCCCUUGGCAGCUUGCCUAGUUCU [theeternabot_sameState_KL_Theo_B_6] — 2.8-fold higher, 125 nM
- UGUCAUGGAAACAUGAACGUUGAUGUUCGACGAGGACCGGUACGGCCGCCACUCGAGUAAUAGUCAGUGAUGUUGACUAGUCUAA [KL-SSTryp-A form1] — 2.1-fold higher, 95 nM
- CAACCGUAACACGAUACCAGCCUAGAAGCCAGUGAUGUUGGCCUUUUUUCGGAAAUGAAAGGCCCUUGGCAGCGUGGAUGAACUG [Dibibiquus] — 8.5-fold higher, 380 nM
